Laboratory results as given in publication PMC10954474, “https://orcid.org/0000-0002-6027-2265 Manakova Elena Institute of Biotechnology, Life Sciences Center, Vilnius University, Sauletekio av. 7, LT-10257, Vilnius, Lithuania”.

Key:
AfAgo;AfAgo-N [1] = target: T1, AfAgo;AfAgo-N (Archaeoglobus fulgidus …, UniProt O28951;A0A075WKW4 1-427;1-250, |); assay: X-ray crystallography; 2.5 A; 5 mM Mg2+; EMSA: 40 mM Tris-acetate, 1 mM EDTA, pH 8.4, 5 mM Mg(OAc)2, 0.1 mg/ml BSA, 1 mM DTT, 10% glycerol, room temperature (25 C), 1 h; conditions: protein: recombinant;recombinant; tags: ;His6-TEV (N-terminal); copies: 1;1; 2 strands partially annealed, 3 bp, in crystal
AfAgo;AfAgo-N [2] = target: T1, AfAgo;AfAgo-N; assay: EMSA; 5 mM Mg2+; EMSA: 40 mM Tris-acetate, 1 mM EDTA, pH 8.4, 5 mM Mg(OAc)2, 0.1 mg/ml BSA, 1 mM DTT, 10% glycerol, room temperature (25 C), 1 h; conditions: protein: recombinant;recombinant, tags: ;His6-TEV (N-terminal), copies: 1;1, label: 5'-32P
AfAgo;AfAgo-N [3] = target: T1, AfAgo;AfAgo-N; assay: EMSA; preloaded guide, 5 mM Mg2+; EMSA: 40 mM Tris-acetate, 1 mM EDTA, pH 8.4, 5 mM Mg(OAc)2, 0.1 mg/ml BSA, 1 mM DTT, 10% glycerol, room temperature (25 C), 1 h; conditions: protein: recombinant;recombinant; tags: ;His6-TEV (N-terminal); copies: 1;1; label: 5'-32P target; g1-g8 complementary
AfAgo;AfAgo-N [4] = target: T1, AfAgo;AfAgo-N; assay: cryo-EM; 3.56 A; EMSA: 40 mM Tris-acetate, 1 mM EDTA, pH 8.4, 5 mM Mg(OAc)2, 0.1 mg/ml BSA, 1 mM DTT, 10% glycerol, room temperature (25 C), 1 h; conditions: protein: recombinant;recombinant; tags: ;His6-TEV (N-terminal); copies: 1;1; blunt
AfAgo = target: T2, AfAgo (Archaeoglobus fulgidus DSM4304, UniProt O28951 1-427); assay: EMSA; 5 mM Mg2+; EMSA: 40 mM Tris-acetate, 1 mM EDTA, pH 8.4, 5 mM Mg(OAc)2, 0.1 mg/ml BSA, 1 mM DTT, 10% glycerol, room temperature (25 C), 1 h; conditions: protein: recombinant; label: 5'-32P; blunt
T2 sequence: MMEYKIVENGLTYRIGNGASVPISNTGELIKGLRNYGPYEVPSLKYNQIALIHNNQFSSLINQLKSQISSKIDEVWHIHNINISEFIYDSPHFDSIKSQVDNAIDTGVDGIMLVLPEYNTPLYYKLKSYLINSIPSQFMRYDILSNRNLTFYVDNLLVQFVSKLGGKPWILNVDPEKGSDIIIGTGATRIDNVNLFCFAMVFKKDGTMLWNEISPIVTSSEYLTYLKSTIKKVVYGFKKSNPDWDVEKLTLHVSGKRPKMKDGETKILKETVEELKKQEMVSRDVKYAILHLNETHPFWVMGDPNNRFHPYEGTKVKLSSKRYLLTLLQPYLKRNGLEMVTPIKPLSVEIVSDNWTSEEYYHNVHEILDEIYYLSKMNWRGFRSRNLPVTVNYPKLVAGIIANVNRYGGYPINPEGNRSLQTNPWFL

AfAgo;AfAgo-N [5] = target: T1, AfAgo;AfAgo-N; assay: cryo-EM; 2.83 A; EMSA: 40 mM Tris-acetate, 1 mM EDTA, pH 8.4, 5 mM Mg(OAc)2, 0.1 mg/ml BSA, 1 mM DTT, 10% glycerol, room temperature (25 C), 1 h; conditions: protein: recombinant;recombinant; tags: ;His6-TEV (N-terminal); copies: 1;1; 30 nt guide on 51 nt target with target overhangs
AfAgo;AfAgo-N [6] = target: T1, AfAgo;AfAgo-N; assay: SEC-SAXS; 5 mM Mg2+; SASDRX8; EMSA: 40 mM Tris-acetate, 1 mM EDTA, pH 8.4, 5 mM Mg(OAc)2, 0.1 mg/ml BSA, 1 mM DTT, 10% glycerol, room temperature (25 C), 1 h; conditions: protein: recombinant;recombinant; tags: ;His6-TEV (N-terminal); copies: 1;1; blunt, self-complementary

B1: GS-851 (ssDNA)
DNA: ATCGACCAGGCTACG
modifications: 5'-phosphate
AfAgo;AfAgo-N [1]
  binding result: binds

B2: ssRNA MZ-1480 (ssRNA)
RNA: AUUGUACACGGCCGAAU
AfAgo;AfAgo-N [2]; single-stranded
  binding result: binds

B3: gRNA MZ-1480 / tDNA MZ-1560 (DNA:RNA)
RNA: AUUGUACACGGCCGAAU
DNA: CGGAATATATGTACAAT
modifications: 5'-phosphate guide
AfAgo;AfAgo-N [3]
  binding result: binds

B4: g17/t17 MZ-1800/MZ-1455 (DNA:RNA)
RNA: AUUGUACACGGCCGAAU
DNA: ATTCGGCCGTGTACAAT
modifications: 5'-phosphate guide
AfAgo;AfAgo-N [4]
  binding result: binds

B5: dsDNA MZ-1447/1455 (dsDNA)
DNA 1: ATTGTACACGGCCGAAT
DNA 2: ATTCGGCCGTGTACAAT
modifications: 5'-phosphate
AfAgo
  binding result: binds
AfAgo;AfAgo-N [2]; blunt
  binding result: binds

B6: g30/t51 MZ-1745/MZ-1747 (DNA:RNA)
RNA: AGGAGGGCGGAGCCUAUGGAAAAACGCCAC
DNA: GCCGCGCCGGTGGCGTTTTTCCATAGGCTCCGCCCTCCTGCCAGAGTTCGC
modifications: 5'-phosphate guide
AfAgo;AfAgo-N [5]
  binding result: binds

B7: ssDNA MZ-1447 (ssDNA)
DNA: ATTGTACACGGCCGAAT
AfAgo;AfAgo-N [2]; single-stranded
  binding result: binds

B8: RNA/DNA MZ-1480/1455 (DNA:RNA)
RNA: AUUGUACACGGCCGAAU
DNA: ATTCGGCCGTGTACAAT
modifications: 5'-phosphate
AfAgo
  binding result: binds
AfAgo;AfAgo-N [2]; blunt
  binding result: binds

B9: MZ-1288 14 bp DNA (dsDNA)
DNA 1: ATTGTGGCCACAAT
DNA 2: ATTGTGGCCACAAT
modifications: 5'-phosphate
AfAgo;AfAgo-N [6]
  binding result: binds
